Test results reported in patent publication US20210238281A1 (INSTITUT NATIONAL DE LA SANTE ET DE LA RECHERCHE MEDICALE …, published 2021).

T1: recombinant murine MOG protein (murine, UniProt Q61885 29-156, limits assumed)
T1 construct: Bought recombinant protein; also called MMOG
T1 sequence (looked up): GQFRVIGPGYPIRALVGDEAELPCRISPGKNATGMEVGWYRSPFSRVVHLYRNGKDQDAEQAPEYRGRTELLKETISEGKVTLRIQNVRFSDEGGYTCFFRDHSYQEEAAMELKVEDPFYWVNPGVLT

T2: recombinant human MOG protein (human, UniProt Q16653 30-154, limits assumed)
T2 construct: Bought recombinant protein; also called HMOG
T2 sequence (looked up): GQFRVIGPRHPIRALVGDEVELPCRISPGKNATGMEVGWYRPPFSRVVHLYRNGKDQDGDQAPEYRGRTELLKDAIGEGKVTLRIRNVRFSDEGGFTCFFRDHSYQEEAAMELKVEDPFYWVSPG

T3: murine FcγRIIB (murine, UniProt P08101 30-207, limits assumed)
T3 sequence (looked up): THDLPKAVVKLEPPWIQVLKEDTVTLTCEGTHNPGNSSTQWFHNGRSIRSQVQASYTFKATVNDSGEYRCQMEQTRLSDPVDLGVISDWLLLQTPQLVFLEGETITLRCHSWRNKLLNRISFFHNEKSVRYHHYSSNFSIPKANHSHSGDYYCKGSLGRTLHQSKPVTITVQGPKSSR

T4: murine FcγRIV (murine, UniProt A0A0B4J1G0 21-203)
T4 sequence: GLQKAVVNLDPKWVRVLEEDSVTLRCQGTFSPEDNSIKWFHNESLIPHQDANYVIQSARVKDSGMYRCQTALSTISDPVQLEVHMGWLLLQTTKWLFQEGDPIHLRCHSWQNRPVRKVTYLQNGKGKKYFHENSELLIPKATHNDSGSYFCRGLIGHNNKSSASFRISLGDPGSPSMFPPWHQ

T5: murine FcγRIII (murine, UniProt P08508 31-215)
T5 sequence (looked up): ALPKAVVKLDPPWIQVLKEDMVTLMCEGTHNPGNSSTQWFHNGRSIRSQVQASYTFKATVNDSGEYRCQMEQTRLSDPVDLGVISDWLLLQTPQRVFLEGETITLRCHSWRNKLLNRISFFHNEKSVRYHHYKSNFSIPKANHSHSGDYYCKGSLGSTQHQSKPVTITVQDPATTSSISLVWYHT

T6: murine FcγRI (murine, UniProt P26151 25-297)
T6 construct: also called FcγRIA; CD64
T6 sequence (looked up): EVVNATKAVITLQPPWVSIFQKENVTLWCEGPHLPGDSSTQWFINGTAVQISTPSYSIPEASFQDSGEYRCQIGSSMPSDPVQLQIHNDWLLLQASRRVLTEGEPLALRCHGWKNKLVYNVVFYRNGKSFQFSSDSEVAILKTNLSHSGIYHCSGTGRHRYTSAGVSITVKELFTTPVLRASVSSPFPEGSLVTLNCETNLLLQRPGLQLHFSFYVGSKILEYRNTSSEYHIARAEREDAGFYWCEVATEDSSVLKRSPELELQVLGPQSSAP


Columns and labels:
[1] = target: T1, recombinant murine MOG protein; test: phage-scFv ELISA on coated recombinant murine MOG (0.5 µg/well), anti-M13 HRP, OD450 over BSA background
Protocol: (§1) The binding characteristics of the scFvs expressed on the surface of the phages isolated during the screening were determined using an ELISA assay using the recombinant MOG protein (R&D system). Along with the selected clones, phage-scFv-8-18C5 is expressed to serve as a positive control for ELISA. Briefly, phage-scFv were produced in the form of clones isolated on a 96-well plate in 800 μl of 2YT/ampicillin/glucose cultures infected with the helper phage M13K07 (as described previously). The phages produced overnight at 26° C. were then recovered in the supernatants after 30 minutes of centrifugation at 3000 g. These supernatants were directly diluted 1/2 in PBS/4% BSA/0.1% Tween 20 and tested on Maxisorp immunoplates previously coated with 0.5 μg of human or murine MOG or PBS (background control (bdf) in BSA)/well and blocked with 4% BSA in PBS. After incubation for 2 hours at 37° C., the wells were washed 3 times with PBS/0.1% Tween-20 and bound phages-scfv were detected with anti-M13 HRP antibody (GE Healthcare). The plate is read at 450 nm (OD) on a plate reader (TECAN). The results are expressed as a ratio: OD on target/OD bdf (OD on an uncoated plate saturated with BSA) and the ratios are compared with that obtained for the positive control.

[2] = target: T2, recombinant human MOG protein; test: phage-scFv ELISA on coated recombinant human MOG (0.5 µg/well), anti-M13 HRP, OD450 over BSA background
Protocol: as §1

[3] = target: T3, murine FcγRIIB; test: ELISA, IgG aggregated with anti-IgG F(ab')2-HRP on coated FcγR
Protocol: (§2) The binding of the 8-18C5-WT and 8-18C5-Del antibodies to human or murine FcγRs was measured by ELISA after incubation, with the F(ab′)2 of goat anti-human IgG HRP for 2 h at room temperature (at a final concentration of 0.5 μg/ml for each molecule) with gentle stirring. The IgGs aggregated to the F(ab′)2 were then incubated with gentle agitation for 1 h at 30° C. on the Maxisorp or NiNTA immunoplates previously coated with the FcγR and saturated with PBS-BSA 4%.

[4] = target: T4, murine FcγRIV; test: as above
Protocol: as §2

[5] = target: T5, murine FcγRIII; test: as above
Protocol: as §2

[6] = target: T6, murine FcγRI; test: as above
Protocol: as §2

Binder	ratio OD on target/OD bdf [1] [ratio]	ratio OD on target/OD bdf [2] [ratio]	binding result [3]	binding result [4]	binding result [5]	binding result [6]
anti-MOG MO3I-63 antibody (scFv, V domains shown) VH: QVQLVQSGAEVKTPGASVKISCKASGYAFTSYAMHWVRAPGQGLEWMGWINAANANTKYSQRFQGRVTITRDTSASTAYMELNSLRSEDTAVYYCASSEDISRSNYYNYYMDVWGKGTTVTVSS VL: DIVMTQSPSSLSASVGDRVTITCRASQTITTSLAWFQHRPGKAPKLLIYSASSLQSGVPSRFSGSGSGTDFTLTISSLQPEDFATYSCQQTYSAPPTFGGGTKVEIK	5.55	2.66				
recombinant murine monoclonal antibody 8-18C5 (8-18C5-WT) (antibody, mouse IgG1, kappa, Murine IgG1 (consensus IGHG1*01 constant domain) produced in HEK or YB2/0 cells; also called mAb 8-18C5; YB2) heavy: EVKLHESGAGLVKPGASVEISCKATGYTFSSFWIEWVKQRPGHGLEWIGEILPGRGRTNYNEKFKGKATFTAETSSNTAYMQLSSLTSEDSAVYYCATGNTMVNMPYWGQGTTVTVSSAKTTPPSVYPLAPGSAAQTNSMVTLGCLVKGYFPEPVTVTWNSGSLSSGVHTFPAVLESDLYTLSSSVTVPSSPRPSETVTCNVAHPASSTKVDKKIVPRDCGCKPCICTVPEVSSVFIFPPKPKDVLTITLTPKVTCVVVDISKDDPEVQFSWFVDDVEVHTAQTQPREEQFNSTFRSVSELPIMHQDWLNGKEFKCRVNSAAFPAPIEKTISKTKGRPKAPQVYTIPPPKEQMAKDKVSLTCMITDFFPEDITVEWQWNGQPAENYKNTQPIMNTNGSYFVYSKLNVQKSNWEAGNTFTCSVLHEGLHNHHTEKSLSHSPGK light: DIELTQSPSSLAVSAGEKVTMSCKSSQSLLNSGNQKNYLAWYQQKPGLPPKLLIYGASTRESGVPDRFTGSGSGTDFTLTISSVQAEDLAVYYCQNDHSYPLTFGAGTKLEIKRADAAPTVSIFPPSSEQLTSGGASVVCFLNNFYPKDINVKWKIDGSERQNGVLNSWTDQDSKDSTYSMSSTLTLTKDEYERHNSYTCEATHKTSTSPIVKSFNRNEC			binds	no binding (tested: 0.5 µg/ml)	binds	no binding (tested: 0.5 µg/ml)
8-18C5-Del variant of the recombinant murine antibody 8-18C5 (antibody, mouse IgG1, kappa, Fc N-glycan highly sialylated (antibody produced in YB2/0 cells); the letters do not carry it., Murine IgG1, produced in YB2/0 cells; also called m8-18C5-Del) heavy: EVKLHESGAGLVKPGASVEISCKATGYTFSSFWIEWVKQRPGHGLEWIGEILPGRGRTNYNEKFKGKATFTAETSSNTAYMQLSSLTSEDSAVYYCATGNTMVNMPYWGQGTTVTVSSAKTTPPSVYPLAPGSAAQTNSMVTLGCLVKGYFPEPVTVTWNSGSLSSGVHTFPAVLESDLYTLSSSVTVPSSPRPSETVTCNVAHPASSTKVDKKIVPRDCGCKPCICTVPEVSSVFIFPPKPKDVLTITLTPKVTCVVVDISKDDPEVQFSWFVDDVEVHTAQTQPREQFNSTFRSVSELPIMHQDWLNGKEFKCRVNSAAFPAPIEKTISKTKGRPKAPQVYTIPPPKEQMAKDKVSLTCMITDFFPEDITVEWQWNGQPAENYKNTQPIMNTNGSYFVYSKLNVQKSNWEAGNTFTCSVLHEGLHNHHTEKSLSHSPGK light: DIELTQSPSSLAVSAGEKVTMSCKSSQSLLNSGNQKNYLAWYQQKPGLPPKLLIYGASTRESGVPDRFTGSGSGTDFTLTISSVQAEDLAVYYCQNDHSYPLTFGAGTKLEIKRADAAPTVSIFPPSSEQLTSGGASVVCFLNNFYPKDINVKWKIDGSERQNGVLNSWTDQDSKDSTYSMSSTLTLTKDEYERHNSYTCEATHKTSTSPIVKSFNRNEC			no binding (tested: 0.5 µg/ml)	no binding (tested: 0.5 µg/ml)	no binding (tested: 0.5 µg/ml)	no binding (tested: 0.5 µg/ml)
anti-MOG MO4H-106 antibody (scFv, V domains shown) VH: QVQLVQSGAEVKKPGASVKVSCKASGYTFTTYNIHWMRQAPGQSLEWMGWISTGNGDTEYSQKLQGSVTFTRDTSASTVYMDLNSLTPGDTAVYSCARESLFVSSWYADYWGQGTLVTVSS VL: not shown	2.78	2.55				

Second part, the binder after the results:

ratio OD on target/OD bdf [1] [ratio]	ratio OD on target/OD bdf [2] [ratio]	binding result [3]	binding result [4]	binding result [5]	binding result [6]	Binder
2.45	2.14					anti-MOG MO3I-34 antibody (scFv, V domains shown) VH: EVQLVQSGAEVKKPGASVKVSCKASGYTFTSYGISWVRQAPGQGLEWMGWISAYNGNTNYAQKLQGRVTMTTDTSTSTAYMELRSLRSDDTAVYYCARNMGCSSTSCFVSWFDPWGQGTLVTVSS VL: QSVLTQPPSVSAAPGQKVTISCSGSRSNIGSNYVSWYQQLPGTAPKLLIYDNTRRPSGIPDRFYGSKSGTSATLDITGLQTGDEADYHCATWDSSLSALLFGGGTKVTVL
2.76	2.26					anti-MOG MO3I-69 antibody (scFv, V domains shown) VH: DQVQLVQSGAEVKPGASVKVSCKASGYTFTYYYLHWVRQAPGQGLEWMGWINPNSGATIFAQKFQGRVTLTRDTSISTAYLDLSRLRSDDTAVYYCARASMAYQYHSDVDYWGLGTLVTVSS VL: QSVLTQPPSVSGAPGQRVTISCTGSSSNIGAGYDVHWYQQLPGTAPKLLIYGNSNRPSGVPDRFSGSKSGTSASLAITGLQAEDEADYYCQSYDSSLVVFGGGTKLTVL
2.19	2.86					anti-MOG MO3I-30 antibody (scFv, V domains shown) VH: EVQLLESGGGLVQPGGSLRLSCVASGFTFRSYWMHWVRQDPGEGLVWVSRVSGDGSSTNYADSVKGRFVISRDNAKDTLYLQMYSLRGEDTAVYYCLRGNDGYGNFDYWGQGTTVTVSS VL: DVVMTQSPLSLPVTLGQPASISCRPSQSLVYSDGNTYLNWFQQRPGQSPRRLIYKVSNRDYVVPDRFSGSGSGTDFTLKISRVEAEDVGVYYCMQGTHWPLTFGGGTKVEIK
4.01	2.04					anti-MOG MO4H-118 antibody (scFv, V domains shown) VH: EVQLVQSGAEVKKPGASVKVSCKVSGYTLTELSMHWVRQAPGKGLEWMGGFDPEDGETIYAQKFQGRVTMTEDTSTDTAYMELSSLRSEDTAVYYCATIGPKVAAHTYYFDYWGQGTLVTVSS VL: DIQLTQSPSSLSASVGDRVTITCRASQTIVTYLNWYQQKPGKAPNLLITDASSLQSGVPSRFSGTESGTDFTLTISSLQPEDFGSYYCQSYMNPITFGQGTRLEIN
2.52	2.53					anti-MOG MO3I-33 antibody (scFv, V domains shown) VH: DQVQLVQSGAEVKPGATVKISCKVSGYTFTDYYMHWVQQAPGKGLEWMGLVDPEDGETIYAEKFQGRVTITADTSTDTAYMELSSLRSEDTAVYYCATSYHGTSGFDYWGQGTLVTVSS VL: QSVVTQPPSVSGAPGQRVTIACTGSNSDIGAGHDVHWYQQFPRTAPKLIIFGNTNRPSGVPDRFSGSKSGTSASLVITGLQADDEADYHCQSYDNNLSGPIFGGGTKLTVL
